The target of assay [1] is T1, human LGR7 (human, UniProt Q9HBX9 1-757).
T1 sequence (looked up): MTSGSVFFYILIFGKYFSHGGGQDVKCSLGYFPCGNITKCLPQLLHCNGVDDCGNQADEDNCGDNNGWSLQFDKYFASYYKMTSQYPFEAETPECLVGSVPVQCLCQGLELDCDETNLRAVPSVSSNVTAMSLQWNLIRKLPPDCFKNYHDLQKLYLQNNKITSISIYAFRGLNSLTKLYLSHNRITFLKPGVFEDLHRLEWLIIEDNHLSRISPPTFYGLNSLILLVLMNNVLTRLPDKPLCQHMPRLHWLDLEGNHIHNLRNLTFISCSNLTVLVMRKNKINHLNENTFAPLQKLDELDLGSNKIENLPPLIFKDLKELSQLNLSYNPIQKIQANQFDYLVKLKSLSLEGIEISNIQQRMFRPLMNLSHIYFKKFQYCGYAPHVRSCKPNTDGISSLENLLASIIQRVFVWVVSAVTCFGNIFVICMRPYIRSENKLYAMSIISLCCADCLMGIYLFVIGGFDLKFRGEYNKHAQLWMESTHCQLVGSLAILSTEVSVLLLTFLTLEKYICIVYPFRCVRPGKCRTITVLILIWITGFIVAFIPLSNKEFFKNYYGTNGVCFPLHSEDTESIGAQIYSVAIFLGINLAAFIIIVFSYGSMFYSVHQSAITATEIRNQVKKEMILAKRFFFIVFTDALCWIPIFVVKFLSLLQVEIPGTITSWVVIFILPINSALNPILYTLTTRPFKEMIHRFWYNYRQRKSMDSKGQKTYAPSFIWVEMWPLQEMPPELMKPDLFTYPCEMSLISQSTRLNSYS
As to the kind of experiment: cell-based or functional assay.

The target in assay [2] is T2, rat GPCR135 (rat, UniProt Q8BGE9 1-472 (mouse entry)).
T2 construct: Also tested as the native receptor in rat brain sections; also called rat GPCR135 receptors
T2 chain: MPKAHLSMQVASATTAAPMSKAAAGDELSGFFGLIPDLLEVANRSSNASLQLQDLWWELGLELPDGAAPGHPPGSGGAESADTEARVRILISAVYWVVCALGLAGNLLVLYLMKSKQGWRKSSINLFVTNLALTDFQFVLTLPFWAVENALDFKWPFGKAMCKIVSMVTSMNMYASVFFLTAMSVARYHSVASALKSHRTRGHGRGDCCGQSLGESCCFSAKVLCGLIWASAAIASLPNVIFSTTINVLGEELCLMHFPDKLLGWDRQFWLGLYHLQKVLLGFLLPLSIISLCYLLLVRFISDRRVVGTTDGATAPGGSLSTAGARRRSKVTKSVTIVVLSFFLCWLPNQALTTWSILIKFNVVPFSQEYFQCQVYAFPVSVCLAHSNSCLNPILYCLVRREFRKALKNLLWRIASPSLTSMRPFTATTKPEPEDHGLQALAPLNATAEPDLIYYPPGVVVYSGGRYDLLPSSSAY
Nature of the assay: inhibition of [125I]R3/I5 binding sites, quantitative receptor autoradiography, rat superior colliculus.
Protocol: (§1) Sections were thawed and dried under a cold air stream and then pre-incubated for 15 min. at room temperature in incubation buffer (20 mM HEPES, pH 7.4, 120 mM NaCl₂, 0.22 mM KH₂PO₄, 1.3 mM CaCl₂, 0.8 mM MgSO₄) by immersing sections in a 400 ml jar. […] After incubation, the excess radioligand was washed off by immersing the slides in the jar containing incubation buffer at 4° C. (3 times 10 min.) followed by a quick immersion in water. […] The imaging plates were scanned using the Fuji Bio-Imaging Analyzer System (BAS-5000, Fuji Medical System, CT) and visualized using ImageGauge V3.12 software (Fuji Medical System, CT).

For assay [3], the target named is T2, rat GPCR135. As to the kind of experiment: inhibition of [125I]R3/I5 binding sites, quantitative receptor autoradiography, rat olfactory bulb.
Protocol: as §1
The target in assay [4] is T2, rat GPCR135. Nature of the assay: inhibition of [125I]R3/I5 binding sites, quantitative receptor autoradiography, rat cortex.
Protocol: as §1
The target of assay [5] is T2, rat GPCR135. As to the kind of experiment: competition with [125I]R3 (100 pM), COS-7 membranes with rat GPCR135.
Protocol: (§2) The reaction was incubated at room temperature for 1 hour and the membranes were filtered through the 96-well GFC plates (Packard Instrument Co., Meriden, Conn.) using a cell harvester (Packard Instrument Co). The filter was washed with the ice cold washing buffer (50 mM Tris-HCl, pH 7.5). Fifty μl of Microscint 40 (Packard Instrument Co) was added to each well and the plates were counted on a Topcount NTX (Packard Instrument Co). […] The results were analyzed using the PRISM software (GraphPad, San Diego, Calif.).
Another assay deals with T3, rat LGR7 (rat, UniProt Q6R6I6 1-758).
T3 construct: whole, on cells; Tested as membranes of transfected COS-7 cells; also called rat LGR7 receptors
T3 sequence (looked up): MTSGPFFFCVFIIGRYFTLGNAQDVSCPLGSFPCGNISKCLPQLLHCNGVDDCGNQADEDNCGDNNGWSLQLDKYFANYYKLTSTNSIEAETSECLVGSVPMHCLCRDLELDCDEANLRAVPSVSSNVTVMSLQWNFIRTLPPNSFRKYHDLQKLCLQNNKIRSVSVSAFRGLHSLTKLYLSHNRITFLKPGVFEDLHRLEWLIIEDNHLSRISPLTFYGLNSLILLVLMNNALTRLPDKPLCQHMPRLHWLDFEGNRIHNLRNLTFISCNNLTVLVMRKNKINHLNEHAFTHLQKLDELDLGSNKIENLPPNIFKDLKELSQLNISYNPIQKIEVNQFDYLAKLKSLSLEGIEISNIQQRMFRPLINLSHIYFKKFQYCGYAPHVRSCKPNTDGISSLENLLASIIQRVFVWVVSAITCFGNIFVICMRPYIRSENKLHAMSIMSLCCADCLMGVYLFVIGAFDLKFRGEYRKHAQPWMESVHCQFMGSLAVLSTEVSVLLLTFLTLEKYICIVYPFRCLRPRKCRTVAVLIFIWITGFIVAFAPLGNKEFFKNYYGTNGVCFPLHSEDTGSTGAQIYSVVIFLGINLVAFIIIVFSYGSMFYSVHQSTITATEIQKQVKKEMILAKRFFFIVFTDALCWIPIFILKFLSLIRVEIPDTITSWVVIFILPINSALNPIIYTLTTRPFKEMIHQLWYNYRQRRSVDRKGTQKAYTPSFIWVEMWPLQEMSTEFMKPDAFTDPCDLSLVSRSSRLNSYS
Nature of the assay: competition with [125I]R2 (100 pM), COS-7 membranes with rat LGR7.

The next assay deals with T4, human LGR8 (human, UniProt Q8WXD0 1-754).
T4 construct: whole, on cells
Nature of the assay: competition with [125I]-INSL3 (100 pM) on live COS-7 cells expressing human LGR8; ND denotes no activity was detected.

The target in assay [6] is T1, human LGR7. As to the kind of experiment: competition with [125I]-relaxin-3 (100 pM) on live COS-7 cells expressing human LGR7; ND denotes no activity was detected.
Protocol: (§3) Different unlabeled peptides were used in the binding assay as the competitors. […] Data represent mean±SEM (n=3).
(§4) Radioligand binding assays for LGR7 and LGR8 were performed using live COS-7 cells transiently transfected with LGR7 or LGR8 expression plasmids in 15-cm culture dishes using LipofectAmine (Invitrogen). Two days after transfection, the transfected cells were detached from the 15-cm culture dished using phosphate buffered saline (PBS) plus 10 mM EDTA, seeded into 96-well opaque poly-D-lysine coated culture plates and used for radioligand binding assays. […] [¹²⁵I]-labeled tracer was added in binding reactions at a final concentration of 100 pM in binding buffer containing DMEM plus 50 mM HEPES and 1% bovine serum albumin. […] The binding mixtures were incubated at room temperature for 1 hour. The unbound radioligand was removed by aspiration of the binding buffer. The cells were washed with PBS. The bound radioligand was counted in a scintillation counter (TopCount/NTX). The results were analyzed using Prism 3.0 program (Graphpad, San Diego, Calif.).
The target in assay [7] is T5, human GPCR142 (human, UniProt Q8TDU9 1-374).
T5 construct: Recombinant
As to the kind of experiment: competition with [125I]-relaxin-3 (100 pM), COS-7 membranes with human GPCR142.
Protocol: as §3
(§5) Peptides for competition binding studies were added to the binding mix (final volume: 200 μl) in binding buffer [50 mM Tris-HCl, pH 7.5, 5 mM EDTA, 1% bovine serum albumin, 0.1% protease inhibitor cocktails (Sigma)]. The binding mixtures were incubated at room temperature for 1 hour, filtered through GFC plates (Packard) pre-saturated with 0.3% Polyethylenimine (Sigma), and washed with cold washing buffer (50 mM Tris-HCl, pH 7.5, 5 mM EDTA).

Assay [8] has as its target T6, human GPCR135 (human, UniProt Q9NSD7 1-469).
T6 construct: Recombinant; also called SALPR
T6 sequence: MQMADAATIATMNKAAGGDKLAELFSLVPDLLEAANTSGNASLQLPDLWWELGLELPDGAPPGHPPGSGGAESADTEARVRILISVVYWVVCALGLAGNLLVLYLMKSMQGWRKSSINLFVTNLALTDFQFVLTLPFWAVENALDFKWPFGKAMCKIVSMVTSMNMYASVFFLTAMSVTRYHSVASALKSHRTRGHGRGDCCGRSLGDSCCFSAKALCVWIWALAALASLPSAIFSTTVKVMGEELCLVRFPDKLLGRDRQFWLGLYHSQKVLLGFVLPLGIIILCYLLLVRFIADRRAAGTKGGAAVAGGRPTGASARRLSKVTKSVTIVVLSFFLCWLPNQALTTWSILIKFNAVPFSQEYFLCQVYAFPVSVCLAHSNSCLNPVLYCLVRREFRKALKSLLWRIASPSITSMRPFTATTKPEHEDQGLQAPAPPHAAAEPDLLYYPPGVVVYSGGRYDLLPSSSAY
Nature of the assay: competition with [125I]-relaxin-3 (100 pM), COS-7 membranes with human GPCR135.
Protocol: as §3, §5

The target of assay [9] is T5, human GPCR142. As to the kind of experiment: cell-based or functional assay.
The target in assay [10] is T6, human GPCR135. Nature of the assay: cell-based or functional assay.
Assay [11] deals with T2, rat GPCR135. As to the kind of experiment: competition with [125I]-R3 (100 pM), COS-7 membranes with rat GPCR135.
Protocol: as §2
The target of assay [12] is T1, human LGR7. As to the kind of experiment: radioligand competition, live COS-7 cells with human LGR7. (In general: Displacement assays read how much labelled ligand stays bound in the presence of the test substance.)
Protocol: as §3, §4
Assay [13] addresses T2, rat GPCR135. Nature of the assay: radioligand competition, COS-7 membranes; reference rat LGR7.
Protocol: as §2
Assay [14] addresses T1, human LGR7. Nature of the assay: cell-based or functional assay. This is another data set of the same source.
Assay [15] addresses T1, human LGR7. As to the kind of experiment: competition with [125I]-relaxin-3 (100 pM), live COS-7 cells with human LGR7.
Protocol: as §3, §4
Assay [16] addresses T6, human GPCR135. Nature of the assay: discussion of the radioligand binding results.
In assay [17] the target is T1, human LGR7. As to the kind of experiment: discussion of the radioligand binding results.

Read-outs that look alike come from different tables or passages of the source. Ends that are not written are not given here. Where only a bound is given, the exact number is not on record here.

T5 sequence (Q8TDU9 whole entry L329S): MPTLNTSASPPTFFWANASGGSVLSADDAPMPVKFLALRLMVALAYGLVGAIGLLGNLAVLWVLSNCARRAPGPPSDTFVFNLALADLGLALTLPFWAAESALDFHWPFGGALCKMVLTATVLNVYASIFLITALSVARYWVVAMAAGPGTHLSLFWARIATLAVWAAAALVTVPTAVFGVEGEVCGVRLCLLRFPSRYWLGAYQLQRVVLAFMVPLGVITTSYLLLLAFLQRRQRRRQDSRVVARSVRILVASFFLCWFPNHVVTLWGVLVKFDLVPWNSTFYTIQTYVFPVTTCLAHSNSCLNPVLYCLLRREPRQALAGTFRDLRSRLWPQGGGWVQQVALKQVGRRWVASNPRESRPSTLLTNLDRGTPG
T4 sequence (Q8WXD0 whole entry): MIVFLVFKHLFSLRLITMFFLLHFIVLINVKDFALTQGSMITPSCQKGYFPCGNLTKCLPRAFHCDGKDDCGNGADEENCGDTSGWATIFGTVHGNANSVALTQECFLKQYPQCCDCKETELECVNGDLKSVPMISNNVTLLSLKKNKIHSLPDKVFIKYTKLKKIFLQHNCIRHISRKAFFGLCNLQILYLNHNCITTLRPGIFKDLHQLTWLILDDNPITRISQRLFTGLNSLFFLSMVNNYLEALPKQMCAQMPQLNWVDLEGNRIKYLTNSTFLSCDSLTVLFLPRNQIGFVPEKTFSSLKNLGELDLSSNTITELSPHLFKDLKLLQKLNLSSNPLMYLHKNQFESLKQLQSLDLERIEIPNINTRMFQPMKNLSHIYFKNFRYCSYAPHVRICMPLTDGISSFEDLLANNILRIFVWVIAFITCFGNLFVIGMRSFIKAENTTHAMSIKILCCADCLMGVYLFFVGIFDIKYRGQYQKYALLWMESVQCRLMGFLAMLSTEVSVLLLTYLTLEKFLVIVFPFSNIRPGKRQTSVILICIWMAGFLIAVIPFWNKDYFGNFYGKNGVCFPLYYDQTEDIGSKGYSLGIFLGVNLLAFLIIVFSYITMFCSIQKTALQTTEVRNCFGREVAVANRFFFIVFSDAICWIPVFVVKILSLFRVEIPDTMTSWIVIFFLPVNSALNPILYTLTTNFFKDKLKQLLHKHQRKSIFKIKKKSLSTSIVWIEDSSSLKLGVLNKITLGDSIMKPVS
Protocol for human LGR8: as §3, §4

B1: human relaxin-3 (ligand)
chain: RAAPYGVRLCGREFIRAVIFTCGGSRWDVLAGLSSSCCKWGCSKSEISSLC
modifications: disulfide (positions not given here); also: two-chain peptide (A and B chains), disulfide-linked, places not given here
notes: Mature two-chain peptide (A-chain and B-chain, disulfide-linked); It is not clear whether that entry holds the B-chain alone or both chains; also called R3; INSL7
Regarding B1, the “EC50, stimulation of β-galactosidase activity” value in the assay with human LGR7 [1] worked out at 1.4 nM. The results for the IC50 with rat GPCR135 [2], with rat GPCR135 [3] and with rat GPCR135 [4] were 0.3 nM, 0.3 nM and 0.4 nM, respectively.

B2: human relaxin (R1) (ligand)
chain: KWKDDVIKLCGRELVRAQIAICGMSTWSRPYVALFEKCCLIGCTKRSLAKYC
notes: also called relaxin-1
Regarding B2, the results for the IC50 in the assay with rat GPCR135 [5] and with rat LGR7 were above 1000 nM and 0.2 nM, respectively.

B3: human relaxin-3/INSL4 chimeric polypeptide (R3/I4), mature (ligand)
chain: RAAPYGVRLCGREFIRAVIFTCGGSRWFDPFCCEVICDDGTSVKLC
modifications: disulfide (positions not given here); also: two chains (relaxin-3 B-chain, INSL4 A-chain), disulfide-linked, chain break not marked
notes: Mature two-chain peptide: human relaxin-3 B-chain disulfide-linked to human INSL4 A-chain; FLAG tag removed
For the molecule B3, the binding result in the assay with human LGR8 is listed as “no binding”; with human LGR7 [6] it was “no binding (tested: 1 µM)”. The IC50 in the assay with human GPCR142 [7] and in the assay with human GPCR135 [8] was above 1000 nM in each case. Besides, the “EC50, inhibition of forskolin stimulated β-galactosidase expression” value in the assay with human GPCR142 [9] and in the assay with human GPCR135 [10] was above 1000 nM each time.

B4: human relaxin-3/INSL5 chimeric polypeptide (R3/I5), mature (ligand)
chain: RAAPYGVRLCGREFIRAVIFTCGGSRWQDLQTLCCTDGCSMTDLSALC
modifications: disulfide (positions not given here); also: two chains (relaxin-3 B-chain, INSL5 A-chain), disulfide-linked, chain break not marked
notes: Mature two-chain peptide: human relaxin-3 B-chain disulfide-linked to human INSL5 A-chain; FLAG tag removed; the tracer is kept under this same molecule; also called R3/5; I5/R3
B4: the half-maximal inhibitory concentration (IC50) (commonly the concentration that inhibits the measured activity by half) with rat GPCR135 [11] is 0.5 nM; with human LGR7 [12] it was around 500 nM; with human GPCR142 [7], 1.4 nM; with human GPCR135 [8], 0.68 nM; with human LGR7 [15] it was 724 nM; in the assay with rat LGR7 it was above 400 nM. The binding result in the assay with human LGR8 is listed as “no binding”. The “fold selectivity over rat LGR7” value with rat GPCR135 [13] is 800 fold. Also, the entries for the “EC50, inhibition of forskolin stimulated β-galactosidase expression” value in the assay with human GPCR142 [9] and with human GPCR135 [10] were 0.91 nM and 0.45 nM, respectively. The “EC50, ligand stimulated β-galactosidase expression” value is 412 nM with human LGR7 [14] and around 400 nM with human LGR7 [1]. Besides, the figures for the Kd in the assay with human GPCR135 [16] and with human LGR7 [17] were around 0.5 nM and around 500 nM, respectively.

The values are drawn from patent US20080051336A1 (Janssen / Centocor, published 2008).
